Literature values as cited in article PMC5711038.

Biological target: Fbxw7 substrate receptor (Homo sapiens) (UniProt Q969H0)
Experiment: FRET

Sequence of UniProt Q969H0 (Q969H0 whole entry): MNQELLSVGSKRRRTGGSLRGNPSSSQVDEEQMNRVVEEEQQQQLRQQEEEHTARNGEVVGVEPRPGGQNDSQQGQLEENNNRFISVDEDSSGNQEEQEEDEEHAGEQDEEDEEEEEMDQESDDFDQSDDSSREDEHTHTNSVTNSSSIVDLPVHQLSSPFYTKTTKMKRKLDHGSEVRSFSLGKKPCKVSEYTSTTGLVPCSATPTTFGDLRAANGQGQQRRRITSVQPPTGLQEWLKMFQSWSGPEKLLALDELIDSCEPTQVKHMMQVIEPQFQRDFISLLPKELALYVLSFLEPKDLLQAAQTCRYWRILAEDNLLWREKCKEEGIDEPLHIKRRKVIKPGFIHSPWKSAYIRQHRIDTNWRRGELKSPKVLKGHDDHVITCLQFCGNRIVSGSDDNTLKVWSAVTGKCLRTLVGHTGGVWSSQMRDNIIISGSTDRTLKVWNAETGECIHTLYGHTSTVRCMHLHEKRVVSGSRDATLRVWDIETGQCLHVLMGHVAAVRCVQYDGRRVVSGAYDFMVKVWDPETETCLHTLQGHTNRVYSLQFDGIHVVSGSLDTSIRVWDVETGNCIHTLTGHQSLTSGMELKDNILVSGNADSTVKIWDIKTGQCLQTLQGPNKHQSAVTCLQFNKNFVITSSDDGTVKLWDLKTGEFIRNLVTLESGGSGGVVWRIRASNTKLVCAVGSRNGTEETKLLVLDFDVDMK

Kd: 1 pM
Substance: Cul1 (from UniProt Q13616)
